Reference: PMC6277972

Target: P74-26 gp87 (Head Decoration Protein gp87 from Thermus phage P74-26) (Thermus bacteriophage P74-26)
Experiment: SEC-MALS

P74-26 gp87 (Head Decoration Protein gp87 from Thermus phage P74-26) (natural protein)
stoichiometry N: 3
